Measurements: paper PMC7350259

Columns and labels:
[1] = biological target: human rhinovirus strain RV89 (purified virus) (human rhinovirus 89 (RV-A, major group)); assay: ELISA; fluid phase competition: RV89 (25 µg/mL) or RV2 (2 µg/mL in the methods, 5 µg/mL in the results) pre-incubated with soluble receptor (50 µg/mL) overnight at 4 °C, then added to plate-bound receptor
[2] = biological target: human rhinovirus strain RV2 (purified virus) (human rhinovirus 2 (RV-A, minor group)); assay: as above

Substance: recombinant human ICAM-1/CD54 (intercellular adhesion molecule 1) (from UniProt P05362 28-480) (receptor)
- percent inhibition of RV89 binding to plate-bound ICAM-1 (50 µg/mL ICAM-1, 25 µg/mL RV89) [1]: > 95%

Substance: recombinant human low density lipoprotein receptor (LDLR) (from UniProt P01130 22-788)
- percent inhibition of RV2 binding to plate-bound LDLR (50 µg/mL LDLR) [2]: > 60%
